The target in this data set is alpha-thrombin (UniProt P00734;P00734 P00734:328-363,P00734:364-622). Nature of the data set: binding in 5% human serum, 0.1-100 nM thrombin, 30 pM MB-Carrier; comparable to 0.1 M KCl.

For AGGTCGCCGCCCTCCAACGGTTGGTGTGGTTGG (structured_DNA, internal FAM on T13; 3' DABCYL) [TBA-embedded molecular beacon on lambda-DNA carrier (MB-Carrier)], the binding result was “binds”.

Values taken from US20220372577, “ANALYTE DETECTION METHOD” (IMPERIAL COLLEGE OF SCIENCE, TECHNOLOGY AND MEDICINE, published 2022).
